Data reported in patent US20080188000.

Columns and labels:
[1] = system: ZFN 9666 (GR exon 3 four-finger ZFP-FokI) (synthetic); assay: cell_activity; settings: paired with 9674; Ad5/F35 moi 100, CD8+ T-cells after dexamethasone selection; also Cel I cleavage in K562 (FIG. 3A)
[2] = system: ZFN 9674 (GR exon 3 four-finger ZFP-FokI) (synthetic); assay: cell_activity; settings: paired with 9666; Ad5/F35 moi 100, CD8+ T-cells after dexamethasone selection; also Cel I cleavage in K562 (FIG. 3A)

Sequence | activity (% GR alleles mutated) [1] | activity (% GR alleles mutated) [2]
CAACAGGACCAC (double strand) [GR exon 3 sense target (nt 1370-1381)] | 70 | 
GTTGAGGAGCTG (double strand) [GR exon 3 antisense target (nt 1353-1364)] |  | 70
